Reference: the RNAGym collection of RNA variant scans (doi:10.1093/molbev/msab373)

B1: Azoarcus group I ribozyme (parent)
chain: GUGCCUUGCGCCGGGAAACCACGCAAGGGAUGGUGUCAAAUUCGGCGAAACCUAAGCGCCCGCCCGGGCGUAUGGCAACGCCGAGCCAAGCUUCGGCGCCUGCGCCGAUGAAGGUGUAGAGACUAGACGGCACCCACCUAAGGCAAACGCUAUGGUGAAGGCAUAGUCCAGGGAGUGGCGAAAGUCACACAAACCGG

Variants of: B1
Assay: reverse-splicing fitness (ratio to wild type); higher = more active; in vitro selection; Mg2+ level not given
Procedure, shortened: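 An in vitro group I ribozyme library with randomized positions was T7-transcribed and gel-purified. In triplicate, 10 pmol RNA in EPPS pH 7.5 was reacted with 50 pmoles of a 30-nt RNA substrate for 1 h at 37 °C across several added MgCl2 levels (1–48 mM), then stopped with EDTA. Products were reverse transcribed from a substrate-complementary primer, PCR-amplified and sequenced (HiSeq 4000). Fitness is a variant's read proportion after selection over that before, normalised to wild type.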

Question: For C82U A111C A120G A145C C150G C169A U176G, which reverse-splicing fitness is on record?
Answer: 0.00441

Question: Which reverse-splicing fitness does the source give for C82U A111C A120G A145C C150G C169A U176C here?
Answer: 0.00509

Question: With C82U A111C A120G A145C C150G C169A U176A as the variant, how does the reverse-splicing fitness read?
Answer: 0.00754

Question: With C82U A111C A120U A145C C169A U176A as the variant, how does the reverse-splicing fitness read?
Answer: 0.00241

Question: For C82U A111C A120U A145C C169A U176G, which reverse-splicing fitness is on record?
Answer: 0.0017

Question: For C82U A111C A120U A145C C169A U176C, which reverse-splicing fitness is on record?
Answer: 0.00244

Question: With C82U A111C A120G A145G C169U U176C as the variant, how does the reverse-splicing fitness read?
Answer: 0.0125

Question: With C82U A111C A120G A145G C169U U176G as the variant, how does the reverse-splicing fitness read?
Answer: 0.00411

Question: With C82U A111C A120G A145G C169U U176A as the variant, how does the reverse-splicing fitness read?
Answer: 0.0161

Question: With C82U A111C A120G A145C as the variant, how does the reverse-splicing fitness read?
Answer: 0.0118

Question: With C82U A111C A120G A145G as the variant, how does the reverse-splicing fitness read?
Answer: 0.0154

Question: For C82U A111C A120G A145U, which reverse-splicing fitness is on record?
Answer: 0.0159

Question: Which reverse-splicing fitness does the source give for C82U A111C A120G A145C C169G U176G here?
Answer: 0.00397

Question: For C82U A111C A120G A145C C169G U176A, which reverse-splicing fitness is on record?
Answer: 0.0216

Question: Which reverse-splicing fitness does the source give for C82U A111C A120G A145C C169G U176C here?
Answer: 0.0122

Question: Which reverse-splicing fitness does the source give for C82U A111C A120G A145G C150A C169A U176A here?
Answer: 0.0155

Question: With C82U A111C A120G A145G C150A C169A U176G as the variant, how does the reverse-splicing fitness read?
Answer: 0.00573

Question: With C82U A111C A120G A145G C150A C169A U176C as the variant, how does the reverse-splicing fitness read?
Answer: 0.0218

Question: With C82U A111C A120G U176C as the variant, how does the reverse-splicing fitness read?
Answer: 0.02

Question: With C82U A111C A120G U176A as the variant, how does the reverse-splicing fitness read?
Answer: 0.0155

Question: For C82U A111C A120G U176G, which reverse-splicing fitness is on record?
Answer: 0.00514

Question: For C82U A111C A120U A145G C150A C169G U176G, which reverse-splicing fitness is on record?
Answer: 0.00246

Question: Which reverse-splicing fitness does the source give for C82U A111C A120U A145G C150A C169G U176A here?
Answer: 0.00613

Question: Which reverse-splicing fitness does the source give for C82U A111C A120U A145G C150A C169G U176C here?
Answer: 0.00549

Question: With C82U A111C A120G A145U C169U U176A as the variant, how does the reverse-splicing fitness read?
Answer: 0.0158

Question: Which reverse-splicing fitness does the source give for C82U A111C A120G A145U C169U U176G here?
Answer: 0.00369

Question: For C82U A111C A120G A145U C169U U176C, which reverse-splicing fitness is on record?
Answer: 0.0112

Question: Which reverse-splicing fitness does the source give for C82U A111C A120G A145U C150U C169G U176C here?
Answer: 0.0111

Question: Which reverse-splicing fitness does the source give for C82U A111C A120G A145U C150U C169G U176A here?
Answer: 0.00992

Question: Which reverse-splicing fitness does the source give for C82U A111C A120G A145U C150U C169G U176G here?
Answer: 0.00453

Question: For C82U A111C A120U A145C C150U C169A U176C, which reverse-splicing fitness is on record?
Answer: 0.0025

Question: For C82U A111C A120U A145C C150U C169A U176G, which reverse-splicing fitness is on record?
Answer: 0.00235

Question: With C82U A111C A120U A145C C150U C169A U176A as the variant, how does the reverse-splicing fitness read?
Answer: 0.00213

Question: For C82U A111C A120G A145G C150A U176A, which reverse-splicing fitness is on record?
Answer: 0.0093

Question: With C82U A111C A120G A145G C150A U176G as the variant, how does the reverse-splicing fitness read?
Answer: 0.00528

Question: Which reverse-splicing fitness does the source give for C82U A111C A120G A145G C150A U176C here?
Answer: 0.017

Question: Which reverse-splicing fitness does the source give for C82U A111C A120U A145C C150A U176A here?
Answer: 0.00307

Question: Which reverse-splicing fitness does the source give for C82U A111C A120U A145C C150A U176C here?
Answer: 0.00397

Question: Which reverse-splicing fitness does the source give for C82U A111C A120U A145C C150A U176G here?
Answer: 0.00265

Question: With C82U A111C A120G C150A C169U as the variant, how does the reverse-splicing fitness read?
Answer: 0.00789

Question: For C82U A111C A120G C150A C169G, which reverse-splicing fitness is on record?
Answer: 0.00808

Question: For C82U A111C A120G C150A C169A, which reverse-splicing fitness is on record?
Answer: 0.0101

Question: With C82U A111C A120U A145G as the variant, how does the reverse-splicing fitness read?
Answer: 0.0248

Question: Which reverse-splicing fitness does the source give for C82U A111C A120U A145C here?
Answer: 0.0226

Question: For C82U A111C A120G A145C C150G C169G U176G, which reverse-splicing fitness is on record?
Answer: 0.00437

Question: Which reverse-splicing fitness does the source give for C82U A111C A120G A145C C150G C169G U176C here?
Answer: 0.00632

Question: For C82U A111C A120G A145C C150G C169G U176A, which reverse-splicing fitness is on record?
Answer: 0.00836

Question: For C82U A111C A120U A145C C150U C169G, which reverse-splicing fitness is on record?
Answer: 0.00293

Question: For C82U A111C A120U A145C C150U C169U, which reverse-splicing fitness is on record?
Answer: 0.00319

Question: Which reverse-splicing fitness does the source give for C82U A111C A120U A145C C150U C169A here?
Answer: 0.00253

Question: Which reverse-splicing fitness does the source give for C82U A111C A120G A145U C169A U176C here?
Answer: 0.01

Question: For C82U A111C A120G A145U C169A U176A, which reverse-splicing fitness is on record?
Answer: 0.00825

Question: With C82U A111C A120G A145U C169A U176G as the variant, how does the reverse-splicing fitness read?
Answer: 0.00418

Question: For C82U A111C A120G A145C C150G C169U U176G, which reverse-splicing fitness is on record?
Answer: 0.0039

Question: With C82U A111C A120G A145C C150G C169U U176A as the variant, how does the reverse-splicing fitness read?
Answer: 0.00949

Question: For C82U A111C A120G A145C C150G C169U U176C, which reverse-splicing fitness is on record?
Answer: 0.00897

Question: For C82U A111C A120G A145U C150G C169A U176C, which reverse-splicing fitness is on record?
Answer: 0.00893

Question: For C82U A111C A120G A145U C150G C169A U176A, which reverse-splicing fitness is on record?
Answer: 0.0108

Question: Which reverse-splicing fitness does the source give for C82U A111C A120G A145U C150G C169A U176G here?
Answer: 0.00541

Question: For C82U A111C A120G C150U C169U U176G, which reverse-splicing fitness is on record?
Answer: 0.00513

Question: Which reverse-splicing fitness does the source give for C82U A111C A120G C150U C169U U176C here?
Answer: 0.014

Question: For C82U A111C A120G C150U C169U U176A, which reverse-splicing fitness is on record?
Answer: 0.017

Question: Which reverse-splicing fitness does the source give for C82U A111C A120U A145C C150A C169G here?
Answer: 0.00233

Question: For C82U A111C A120U A145C C150A C169U, which reverse-splicing fitness is on record?
Answer: 0.00301

Question: Which reverse-splicing fitness does the source give for C82U A111C A120U A145C C150A C169A here?
Answer: 0.00255

Question: With C82U A111C A120G C150U U176C as the variant, how does the reverse-splicing fitness read?
Answer: 0.0194

Question: With C82U A111C A120G C150U U176G as the variant, how does the reverse-splicing fitness read?
Answer: 0.00514

Question: For C82U A111C A120G C150U U176A, which reverse-splicing fitness is on record?
Answer: 0.0106

Question: For C82U A111C A120G C150U C169A U176C, which reverse-splicing fitness is on record?
Answer: 0.0113

Question: Which reverse-splicing fitness does the source give for C82U A111C A120G C150U C169A U176A here?
Answer: 0.0142

Question: Which reverse-splicing fitness does the source give for C82U A111C A120G C150U C169A U176G here?
Answer: 0.00479

Question: Which reverse-splicing fitness does the source give for C82U A111C A120G C150U here?
Answer: 0.0115

Question: With C82U A111C A120G C150G as the variant, how does the reverse-splicing fitness read?
Answer: 0.00744

Question: Which reverse-splicing fitness does the source give for C82U A111C A120G C150A here?
Answer: 0.00908

Question: With C82U A111C A120U A145C C150U C169G U176A as the variant, how does the reverse-splicing fitness read?
Answer: 0.003

Question: Which reverse-splicing fitness does the source give for C82U A111C A120U A145C C150U C169G U176G here?
Answer: 0.00216

Question: For C82U A111C A120U A145C C150U C169G U176C, which reverse-splicing fitness is on record?
Answer: 0.00273

Question: Which reverse-splicing fitness does the source give for C82U A111C A120G A145C C150U C169A U176A here?
Answer: 0.00813

Question: With C82U A111C A120G A145C C150U C169A U176G as the variant, how does the reverse-splicing fitness read?
Answer: 0.00505

Question: With C82U A111C A120G A145C C150U C169A U176C as the variant, how does the reverse-splicing fitness read?
Answer: 0.00554

Question: With C82U A111C A120G A145U C150U U176C as the variant, how does the reverse-splicing fitness read?
Answer: 0.0178

Question: Which reverse-splicing fitness does the source give for C82U A111C A120G A145U C150U U176G here?
Answer: 0.00357

Question: Which reverse-splicing fitness does the source give for C82U A111C A120G A145U C150U U176A here?
Answer: 0.013
